Tested on: G-protein beta/gamma subunits (Gβγ)

**Q.** Which results are given for “p110g/SVP4b heterodimer (GFP-fusion tagged p110gamma co-expressed with SVP4b in SF21 cells)”?
**A.** fold stimulation of 32P incorporation into PIP3 in the presence of Gβγ over that in its absence: a 9.4 fold stimulation of ^32P incorporation into PIP3 over that seen in the absence of Gβγ was seen with the p110g/SVP4b heterodimer; pmol incorporation of 32P into PIP3, Plus Gβγ: 10.3 pmol

**Q.** Which results are given for “p110g/p101 heterodimer (GFP-fusion tagged p110gamma co-expressed with full length p101 in SF21 cells)”?
**A.** fold stimulation of 32P incorporation into PIP3 in the presence of Gβγ over basal activity: the p101/p101 heterodimer produced a 4.6 fold stimulation over basal activity in the presence of Gβγ; pmol incorporation of 32P into PIP3, Plus Gβγ: 13.5 pmol
